{"source": "patent US11110115B2", "about": "“Nucleic acid molecule with anti-inflammatory and anti-coagulant and organ-protective properties” (APTAHEM AB, priority 2017, dated 2021)", "molecules": {"B1": {"name": "SEQ ID NO:2: nucleic acid sequence of SEQ ID NO:1 in which each C and U is fluorinated to increase stability in plasma (nucleic acid)", "chain": "GGGAAUUCGAGCUCGGUACCAACAAUACGACUACACCAUCAAAAGUAUUAUCUUGCAUCGAAGGUUGGCACGUAGCAAGCUCUGCAGUCG", "modifications": "fluorinated C and U; (6)..(7) uracil is fluorinated; (8)..(8) cytosine is fluorinated; (12)..(12) cytosine is fluorinated; (13)..(13) uracil is fluorinated; (14)..(14) cytosine is fluorinated; (17)..(17) uracil is fluorinated; (19)..(20) cytosine is fluorinated; (23)..(23) cytosine is fluorinated; (26)..(26) uracil is fluorinated; (28)..(28) cytosine is fluorinated; (31)..(31) cytosine is fluorinated; (32)"}}, "key": {"[1]": {"assay": "Tail bleeding model (bleeding time)", "assay_type": "in vivo, Sprague-Dawley rats", "settings": "for group average bleeding time compared to matched vehicle group: SEQ ID NO:2 5, 20, 40 mg/kg i.v. 5 min before, Rivaroxaban 10 mg/kg PO 1 hour before, Warfarin 0.5 mg/kg IV", "protocol": "A total of 36 Sprague-Dawley male and female rats were utilized and divided into six groups comprising of 6 animals per group. Animal handling was performed according to guidelines of the National Institute of Health and the Association for Assessment and Accreditation of Laboratory Animal Care. Animals were fed ad libitum a commercial rodent diet (Teklad Certified Global 18% Protein Diet cat #: 2018SC). Animals had free access to autoclaved and acidified drinking water (pH between 2.5 and 3.5) obtained from the municipality supply. Animals were housed under standard laboratory conditions, air conditioned and filtered with adequate fresh air supply. Animals were kept in a climate controlled environment.\nSEQ ID NO:2 (Biospring) (100 mg) was dissolved in 5 ml saline to form a stock solution of 20 mg/ml. Vehicle (saline) was provided by Pharmaseed as ready to use for i.v. administration. Rivaroxaban (Bayer, Pharmaseed Ltd) dosing solution was diluted at 10 mg/kg (Group 2M). Warfarin (Ceriliant, Pharmaseed Ltd) was diluted at 0.5 mg/kg (Group 3M). Both Rivaroxaban and Warfarin are clinical standards with anticoagulation activity. To obtain SEQ ID NO:2 dosing solution (2.5 mg/ml) for dose level of 5 mg/kg and dose volume of 2 ml/kg for i.v. injection, 0.375 ml of the above 20 mg/ml stock solution was diluted with 2.625 ml of saline (Group 4M). To obtain SEQ ID NO:2 dosing solution (10 mg/ml) for dose level of 20 mg/kg and dose volume of 2 ml/kg for i.v. injection, 1.5 ml of the above 20 mg/ml stock solution was diluted with 1.5 ml saline (Group 5M). To obtain SEQ ID NO:2 dosing solution (20 mg/ml) for dose level of 40 mg/kg and dose volume of 2 ml/kg for i.v. injection, the above 20 mg/ml stock used (Group 6).\nRats were intravenously injected five minutes before bleeding time assay. […] Three treated groups received SEQ ID NO:2 at dose levels of 5, 20 and 40 mg/kg saline solution. In each gender, control groups received saline Vehicle. A positive control group received Rivaroxaban (10 mg/kg). Rivaroxaban was administered by oral gavage 1 hour before bleeding time assay. A second positive control groups received Warfarin (0.5 mg/kg).\nMale and female rats were anaesthetized by intraperitoneal injection of ketamine/xylazine. Bleeding time was monitored as described in Stupnisek et al. (2012), until blood flow stopped for a complete 30-sec interval or till the end of 30 min period. In deeply anaesthetized rats (placed in ventral position) the tail was transected with a surgical scalpel 2 mm from the tip (and submerged into a tube with 40 ml of saline at room temperature in vertical position) and the duration and amount of bleeding was measured to evaluate the hemostatic effect of the agents or saline administration. Following the completion of bleeding time evaluation, all rats were immediately sacrificed by CO2 asphyxiation.\nNumerical results were given as means±standard errors. If applicable, statistical analysis was carried out using one-way ANOVA followed by Dunnett's Multiple Comparison post Test. A probability of 5% (p≤0.05) was regarded as significant."}, "[2]": {"assay": "Arteriovenous shunt model, thrombus weight", "assay_type": "in vivo, Sprague-Dawley male rats", "settings": "SEQ ID NO:2 33.3 mg/kg i.v. 5 min prior; Rivaroxaban 10 mg/kg p.o. 90 min prior; 15 min extracorporeal circulation", "protocol": "This study was conducted at Shanghai WuXi AppTec Co., Ltd., and in accordance with WuXi IACUC standard animal procedures along with the IACUC guidelines that are in compliance with the Animal Welfare Act, the Guide for the Care and Use of Laboratory Animals, and the Office of Laboratory Animal Welfare (OLAW). Sprague-Dawley male rats with body weight ranging between 150-200 g (Vital River; Bejing, P.R. China) were fed ad libitum a rodent diet. Animals had free access to autoclaved and acidified drinking water. Animals were housed under standard laboratory conditions, air conditioned and filtered with adequate fresh air supply. Animals were kept in a climate controlled environment. Rivaroxaban (10 mg/kg) has been dissolved in water and stored at 4° C. 20 mg SEQ ID NO:2 (Biospring) was dissolved in 3 ml Saline, vortexed for 5 min., sonicated with a water bath ultrasonic for 1 minute to achieve 6.66 mg/ml SEQ ID NO:2. The animals were assigned to 3 dosing groups according to the body weight (see table 2). […] Extracorporeal circulation was maintained for 15 min, the thrombus weight formed on the thread was calculated by subtracting the average weight of the rough nylon thread. Significance of difference between control and treated groups was analyzed by performing analysis of variance (ANOVA) by EXCEL office software."}, "[3]": {"assay": "Comparable ex vivo APTT study, mouse"}, "[4]": {"assay": "Comparable ex vivo APTT study, canine"}, "[5]": {"tested_on": "CD11b+CD14+ white blood cells", "assay": "Flow cytometry of CD11b and CD14 on white blood cells after LPS injection", "assay_type": "in vivo, C57BL/6 mice", "settings": "2 h after LPS", "protocol": "Female C57BL/6 mice (Taconic Biosciences) were 8 weeks of age at the start of the study. Animals had free access to autoclaved and acidified drinking water. Animals were housed under standard laboratory conditions, air conditioned and filtered with adequate fresh air supply. Animals were kept in a climate controlled environment.\nSEQ ID NO:2 (Biospring) (100 mg) was dissolved in 5 ml saline to form a stock solution of 20 mg/ml. Vehicle is saline solution.\nDexamethasone stock was prepared by mixing dexamethasone and beta-cyclodextrin at a 4:96 ratio, solubilized in PBS at 2 mg dexamethasone/mL and stored at −20° C. Dosing solution of dexamethasone was prepared by diluting the stock solution to 1 mg/mL with PBS. Dexamethasone administered at 5 to 10 mg/kg, i.p. is used as a positive control for suppression of the immune response.\nTwo hours after LPS injection mice were bled and blood samples were taken. Flow cytometry study was performed on BD FACSCalibur (lasers: 488 nm; 635 nm and UV). In our study we measured the expression of integrin Mac-1 (CD11b/18) on leukocytes by means of flow cytometry. Expression of CD11b on all leukocytes monocytes and granulocytes were assessed by flow cytometry using double fluorescence staining (CD 45/CD11b)."}}}
{"molecule": "B1", "values": [{"measurement": "anti-coagulation activity relative to clinical care standards (Rivaroxaban and Warfarin)", "setting": "[1]; all doses (5, 20, 40 mg/kg i.v.), bleeding time", "value": "equivalent"}, {"measurement": "group average bleeding time compared to matched vehicle group", "setting": "[1]; female rats", "value": "increased significantly"}, {"measurement": "dose response effect on bleeding time", "setting": "[1]; male rats, 5, 20, 40 mg/kg i.v.", "value": "can be observed"}, {"measurement": "group average bleeding time compared to matched vehicle group", "setting": "[1]; male rats", "value": "increased significantly"}, {"measurement": "thrombus weight, less than vehicle group", "setting": "[2]", "value": 48.1, "unit": "%"}, {"measurement": "positive effect on APTT", "setting": "[3]", "value": "confirmed"}, {"measurement": "positive effect on APTT", "setting": "[4]", "value": "confirmed"}, {"measurement": "expression of CD11b compared to vehicle group", "setting": "[5]; 5 mg/kg i.v.", "value": "similar"}, {"measurement": "proportion of CD11b+CD14+ cells in white blood cells compared to vehicle group", "setting": "[5]; 5 mg/kg i.v.", "value": "similar"}, {"measurement": "proportion of CD11b+CD14+ cells in white blood cells compared to vehicle group", "setting": "[5]; 25 mg/kg i.v.", "value": "significantly lower"}, {"measurement": "expression of CD11b compared to vehicle group", "setting": "[5]; 25 mg/kg i.v., not statistically significant", "value": "lower"}, {"measurement": "lower expression of CD11b, difference to vehicle group", "setting": "[5]; 50 mg/kg i.v.", "value": "statistically significant"}, {"measurement": "proportion of CD11b+CD14+ cells in white blood cells compared to vehicle group", "setting": "[5]; 50 mg/kg i.v.", "value": "significantly lower"}]}
